The target in one experiment is T1, IL-22 (Homo sapiens (Human), UniProt Q9GZX6 35-179, limits assumed).
T1 construct: also called IL-22 wt
T1 sequence: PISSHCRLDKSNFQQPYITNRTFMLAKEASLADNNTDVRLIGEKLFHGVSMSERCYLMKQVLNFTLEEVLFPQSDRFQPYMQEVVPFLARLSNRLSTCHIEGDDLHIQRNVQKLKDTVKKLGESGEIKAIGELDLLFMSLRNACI
As to the kind of experiment: SPR, IL-22 as analyte over IL22R1ddq-FCkh (MONO) as ligand.

The next experiment concerns the target T2, IL-19 (human, UniProt Q9UHD0 25-177).
T2 construct: also called Interleukin-19; IL-19a
T2 sequence: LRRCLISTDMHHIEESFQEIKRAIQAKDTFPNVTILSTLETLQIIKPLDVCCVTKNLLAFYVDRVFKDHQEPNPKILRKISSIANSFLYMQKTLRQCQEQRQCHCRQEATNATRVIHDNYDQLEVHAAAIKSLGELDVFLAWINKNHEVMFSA
The experiment in a line: SPR (Biacore), IL-19 (500-3.91 nM) over IL-20R2-fc captured by anti-FC Ab, 1:1 fit. The procedure: (§1) SPR sensorgrams, data fits (black lines), KD values, and residual errors obtained for complexes described at the top of each panel. Panels are labeled as injected soluble proteins, followed by a semicolon (:), then the protein coupled to chip surface, IL-20R1 or IL-20R2. FIGS. 12A and 12B show injection of IL-19 and IL-20 (max conc.=10 μM, 2 fold diluted to 0.625 μM) over IL-20R1. FIGS. 12C and 12D show injection of IL-19 (max conc.=500 nM, 2-fold diluted to 3.91 nM) or IL-20 (max conc.=2000 nM, 2-fold diluted to 62.5 nM) over IL-20R2. FIGS. 12E-12H show IL-19 and IL-20 (fixed at 250 nM) mixed with different concentrations of IL-20R1, or IL-22R1, (max conc.=1000 nM, 2-fold diluted to 7.81 nM) and injected over IL-20R2. To estimate R1 chain affinity/complex stability, the contribution of the ligand was removed by using the 250 nM IL-19, or IL-20, sensorgram as the blank subtraction. All sensorgrams were fit to 1:1 binding models.
(§2) Surface Plasmon Resonance Experiments SPR experiments were performed on Biacore T-100, and T-200, (GE healthcare, Waukesha, Wis.) systems. Soluble IL-20R2 was amine coupled (100-130 RU) to CM5 research grade biacore chips in 10 mM sodium acetate, pH 5.0. IL-20R1-FC and IL-20R2-FC were coupled (60-120 RU) to CM5 chips using an anti-FC Ab coupling kit using the manufacturer's instructions (GE healthcare, Waukesha, Wis.). All binding experiments were performed in running buffer consisting of 10 mM Hepes, pH 7.4, 150 mM NaCl, 0.04% P20, and 0.1 mg/mL bovine serum albumin (Sigma, St. Louis, Mo.). No regeneration was performed between sample injections on IL-20R2 amine-coupled surfaces. […] Soluble proteins were injected for 75-90 seconds (30 uL/min) over the surfaces, and the dissociation phase was followed for 75-120 seconds depending on the stability of the complex being analyzed. […]
IL-19/IL-20R2 and IL-20/IL-20R2 interactions were determined by SPR methods with IL-20R2 attached to a biacore chip by amine coupling, or as an IL-20R2-FC fusion protein.

For experiment [1], the target named is T3, IL-20 (human, UniProt Q9NYY1 25-176).
T3 construct: The crystal model holds residues 24-176; also called Interleukin-20; IL-20b
T3 sequence: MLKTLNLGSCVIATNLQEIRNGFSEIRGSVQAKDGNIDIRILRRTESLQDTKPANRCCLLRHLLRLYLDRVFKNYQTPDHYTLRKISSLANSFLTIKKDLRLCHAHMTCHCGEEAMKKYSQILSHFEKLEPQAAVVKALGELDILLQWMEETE
As to the kind of experiment: SPR (Biacore), IL-20 (2000-62.5 nM) over IL-20R2-fc captured by anti-FC Ab, 1:1 fit. (SPR reads the build-up and loss of mass on a sensor chip optically.)

Experiment [2] deals with T3, IL-20. As to the kind of experiment: SPR, IL-20 over IL-20R2 (FIG. 12D). The method, then: as §1, with “FIGS. 12A-12H are graphs showing IL19/IL-20 receptor interactions and complex stability. SPR” for “SPR”
(§3) Surface Plasmon Resonance Experiments SPR experiments were performed on Biacore T-100, and T-200, (GE healthcare, Waukesha, Wis.) systems. […] Soluble proteins were injected for 75-90 seconds (30 uL/min) over the surfaces, and the dissociation phase was followed for 75-120 seconds depending on the stability of the complex being analyzed. […]

Experiment [3] has as its target T3, IL-20. As to the kind of experiment: SPR, site KD as listed in Table 5.
The target of experiment [4] is T4, IL-19 bound on IL-20R2-fc (IL-19/IL-20R2-fc binary complex) (human, UniProt Q9UHD0 25-177). The experiment in a line: SPR co-injection: IL-19 fixed at 250 nM with IL-20R1 (1000-7.81 nM) over IL-20R2-fc; 250 nM IL-19 sensorgram subtracted; 1:1 fit, apparent value. The method, then: as §1, with “FIGS. 12A-12H are graphs showing IL19/IL-20 receptor interactions and complex stability. SPR” for “SPR”
as §3

In experiment [5] the target is T5, IL-20 bound on IL-20R2-fc (IL-20/IL-20R2-fc binary complex) (human, UniProt Q9NYY1 25-176). The experiment in a line: SPR co-injection: IL-20 fixed at 250 nM with IL-20R1 (1000-7.81 nM) over IL-20R2-fc; 250 nM IL-20 sensorgram subtracted; 1:1 fit, apparent KD (KDapp). The procedure: (§4) To estimate R1 chain affinity/complex stability, the contribution of the ligand was removed by using the 250 nM IL-19, or IL-20, sensorgram as the blank subtraction. All sensorgrams were fit to 1:1 binding models.
(§5) To estimate the stability of IL-20 (IL-20/IL-20R1/IL-20R2 and IL-20/IL-22R1/IL-20R2) and IL-19 (IL-19/IL-20R1/IL-20R2) ternary complexes (FIG. 1), IL-19, or IL-20, was co-injected with soluble IL-20R1 over a biacore chip coupled with IL-20R2. […] The same results, although with different KDapp values, were obtained by evaluating ternary complex stability by injecting soluble IL-20R2 and IL19, or IL-20, over biacore chip surfaces of IL-20R1 or IL-22R1 (FIG. 13).
as §2, with “Wis.).” for “Wis.). All binding experiments were performed in running buffer consisting of 10 mM Hepes, pH 7.4, 150 mM NaCl, 0.04% P20, and 0.1 mg/mL bovine serum albumin (Sigma, St. Louis, Mo.). No regeneration was performed between sample injections on IL-20R2 amine-coupled surfaces.”

Experiment [6] has as its target T4, IL-19 bound on IL-20R2-fc …. As to the kind of experiment: SPR co-injection: IL-19 fixed at 250 nM with IL-20R1 (1000-7.81 nM) over IL-20R2-fc; 250 nM IL-19 sensorgram subtracted; 1:1 fit, apparent KD (KDapp). The procedure:
as §4, §5
as §2, with “Wis.).” for “Wis.). All binding experiments were performed in running buffer consisting of 10 mM Hepes, pH 7.4, 150 mM NaCl, 0.04% P20, and 0.1 mg/mL bovine serum albumin (Sigma, St. Louis, Mo.). No regeneration was performed between sample injections on IL-20R2 amine-coupled surfaces.”

Experiment [7] has as its target T5, IL-20 bound on IL-20R2-fc …. As to the kind of experiment: SPR co-injection: IL-20 fixed at 250 nM with IL-20R1 (1000-7.81 nM) over IL-20R2-fc; 250 nM IL-20 sensorgram subtracted; 1:1 fit, apparent value. The procedure:
as §1, with “FIGS. 12A-12H are graphs showing IL19/IL-20 receptor interactions and complex stability. SPR” for “SPR”
as §3

Experiment [8] concerns the target T6, IL-20/IL-20R2 binary complex (human, UniProt Q9NYY1 25-176; Q6UXL0 30-230).
T6 construct: also called 20 + 20R2; IL-20+soluble IL-20R2
T6 chain 1: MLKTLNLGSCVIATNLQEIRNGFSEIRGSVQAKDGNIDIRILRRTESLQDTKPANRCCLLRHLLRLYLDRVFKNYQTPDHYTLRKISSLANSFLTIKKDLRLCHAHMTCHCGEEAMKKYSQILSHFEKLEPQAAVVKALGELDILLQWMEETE
T6 chain 2: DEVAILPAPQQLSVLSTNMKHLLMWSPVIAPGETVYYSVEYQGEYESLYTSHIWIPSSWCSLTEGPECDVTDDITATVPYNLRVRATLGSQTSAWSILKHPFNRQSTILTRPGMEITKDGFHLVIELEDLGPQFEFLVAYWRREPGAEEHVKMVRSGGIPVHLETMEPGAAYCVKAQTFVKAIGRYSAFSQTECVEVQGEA
The experiment in a line: SPR co-injection: IL-20 fixed at 250 nM with IL-22R1 (1000-7.81 nM) over amine coupled IL-20R2; 250 nM IL-20 sensorgram subtracted; 1:1 fit, apparent value. The method, then:
as §1, with “FIGS. 12A-12H are graphs showing IL19/IL-20 receptor interactions and complex stability. SPR” for “SPR”
as §3

In experiment [9] the target is T6, IL-20/IL-20R2 binary complex. As to the kind of experiment: SPR co-injection: IL-20 fixed at 250 nM with IL-22R1 (1000-7.81 nM) over amine coupled IL-20R2; 250 nM IL-20 sensorgram subtracted; 1:1 fit, apparent KD (KDapp). The procedure: as §1, with “FIGS. 12A-12H are graphs showing IL19/IL-20 receptor interactions and complex stability. SPR” for “SPR”
as §3

The results in this text go back to patent US20150203556A1 (UAB RESEARCH FOUNDATION, published 2015).

B1: IL22R1ddq-FCkh (MONO) (Fc fusion)
chain: AHAPEDPSDLLQHVKFQSSNFENILTWDSGPEGTPDTVYSIEYKTYGERDWVAKKGCQRITRKSCDLTVETGDLQELYYARVTAVSAGGRSATKMTDRFSSLQHTTLKPPDVTCISKVRSIQMIVHPTPTPIRAGDGHRLTLEDIFHDLFYHLELQVNRTYQMHLGGKQREYEFFGLTPDTEFLGTIMICVPTWAKESAPYMCRVKTLPDRTWTYSGSGGGGPSVFIFPPKIKDVLMISLSPIVTCVVVDVSEDDPDVQISWFVNNVEVHTAQTQTHREDYNSTLRVVSALPIQHQDWMSGKEFKCKVNNKDLPAPIERTISKPKGSVRAPQVYVLPPPCEEMTKKQVTLYCMVTDFMPEDIYVEWTNNGKTELNYKNTEPVLDSDGSYFMYSKLRVEKKNWVERNSYSCSVVHEGLHNHHTTKSFSRTPGKGLEASGGLNDIFEAQKIEWHEGTGHHHHHH
As to B1, the Kd with IL-22 is 3.34 nM.

B2: IL-20R2-FC (Fc fusion)
chain: DEVAILPAPQQLSVLSTNMKHLLMWSPVIAPGETVYYSVEYQGEYESLYTSHIWIPSSWCSLTEGPECDVTDDITATVPYNLRVRATLGSQTSAWSILKHPFNRQSTILTRPGMEITKDGFHLVIELEDLGPQFEFLVAYWRREPGAEEHVKMVRSGGIPVHLETMEPGAAYCVKAQTFVKAIGRYSAFSQTECVEVQGEAGSGGGGPSVFIFPPKIKDVLMISLSPIVTCVVVDVSEDDPDVQISWFVNNVEVHTAQTQTHREDYNSTLRVVSALPIQHQDWMSGKEFKCKVNNKDLPAPIERTISKPKGSVRAPQVYVLPPPEEEMTKKQVTLTCMVTDFMPEDIYVEWTNNGKTELNYKNTEPVLDSDGSYFMTSKLRVEKKNWVERNSYSCSVVHEGLHNHHTTKSFGGCGTPASGGLNDIFEAQKIEWHE
notes: also called IL-20-FC
Broadly, the koff is the rate constant with which the complex falls apart. Broadly, the kon is a measure of how fast the partners come together. Consider B2, for which the Kd with IL-19 came to 105 nM; with IL-20 [1], 686 nM; with IL-20 [2], 697 nM; with IL-20 [3] it was 687 nM. Also, the figures for the koff in the experiment with IL-19 and with IL-20 [1] were 0.0242 s⁻¹ and 0.219 s⁻¹, respectively. In addition, the kon came to 230000 M⁻¹ s⁻¹ with IL-19 and 319000 M⁻¹ s⁻¹ in the experiment with IL-20 [1].

B3: soluble IL-20R1 (receptor)
chain: VPCVSGGLPKPANITFLSINMKNVLQWTPPEGLQGVKVTYTVQYFIYGQKKWLNKSECRNINRTYCDLSAETSDYEHQYYAKVKAIWGTKCSKWAESGRFYPFLETQIGPPEVALTTDEKSISVVLTAPEKWKRNPEDLPVSMQQIYSNLKYNVSVLNTKSNRTWSQCVTNHTLVLTWLEPNTLYCVHVESFVPGPPRRAQPSEKQCARTLKDQSS
Regarding B3, the koff in [4] worked out at 0.139 s⁻¹; in experiment [7], 0.0171 s⁻¹. In addition, the kon was determined as 44500 M⁻¹ s⁻¹ in experiment [4] and 53700 M⁻¹ s⁻¹ in experiment [7]. Further, the Kd in [5] was found to be 319 nM; in [6], 3120 nM.

B4: IL-22R1 (sIL-22R1DDQ) (receptor)
chain: HAPEDPSDLLQHVKFQSSNFENILTWDSGPEGTPDTVYSIEYKTYGERDWVAKKGCQRITRKSCDLTVETGDLQELYYARVTAVSAGGRSATKMTDRFSSLQHTTLKPPDVTCISKVRSIQMIVHPTPTPIRAGDGHRLTLEDIFHDLFYHLELQVNRTYQMHLGGKQREYEFFGLTPDTEFLGTIMICVPTWAKESAPYMCRVKTLPDRT
For the molecule B4, in [8], the koff was 0.0893 s⁻¹ and the association rate constant (kon) was found to be 65500 M⁻¹ s⁻¹. Moreover, the Kd in experiment [9] amounted to 1360 nM.
